Reference: PMC3163394 (Cell, 2011)

Target: the molecule itself
Assay: crystal structure

B1: Shb17 (H13A), catalytically inactive mutant of sedoheptulose-1,7-bisphosphatase (enzyme, S. cerevisiae)
chain: MPSLTPRCIIVRAGQTEWSKSGQYTGLTDLPLTPYGEGQMLRTGESVFRNNQFLNPDNITYIFTSPRLRARQTVDLVLKPLSDEQRAKIRVVVDDDLREWEYGDYEGMLTREIIELRKSRGLDKERPWNIWRDGCENGETTQQIGLRLSRAIARIQNLHRKHQSEGRASDIMVFAHGHALRYFAAIWFGLGVQKKCETIEEIQNVKSYDDDTVPYVKLESYRHLVDNPCFLLDAGGIGVLSYAHHNIDEPALELAGPFVSPPEEESQHGDV
- stoichiometry N: 2
